From patent US20190276499A1, “Protein VII Fragments and Methods of Use Thereof for the Treatment of Inflammatory Disorders” (priority 2016, published 2019) come the findings set out here.

One experiment relates to cellular chromatin. Kind of experiment: Chromatin appearance in inducible cell lines (immunofluorescence, DAPI). Particulars: inducible expression. Type of experiment: cell-based. From the text: Primary small airway epithelial cells (SAECs), U2OS, HeLa, 293, THP-1 and A549 cells were obtained from the American Tissue Culture Collection (ATCC) and grown according to the provider's instructions. Acceptor cells for generation of inducible cell lines were used as reported (Khandelia et al. (2011) Proc. Natl. Acad. Sci., 108:12799-12804). Protein VII, preVII and V were cloned from genomic DNA isolated from HeLa cells infected with adenovirus type 5 and inserted into the inducible plasmid cassette with a C-terminal HA tag using restriction enzymes BsrGI and AgeI. Positive clones were selected in DH5a cells, sequenced, and transfected into A549, U2OS or HeLa acceptor cells along with plasmid expressing the Cre recombinase. Recombined clones were selected by puromycin resistance (1 μg/mL) and induced with doxycycline (0.2 μg/mL) to express the desired protein. Protein expression was verified by immunofluorescence and western blot. All figures shown are after 4 days of induction unless otherwise stated. Protein VII and preVII were also verified by HPLC purification and mass spectrometry analysis. Point mutations were generated by gene synthesis from Genewiz.
Cells were grown on glass coverslips in 24-well plates and either infected or induced with doxycycline (0.2 μg/mL). […]

The test system of the next experiment is DNA. Description: Gel shift of recombinant protein VII-His with 195 bp DNA. Type of experiment: binding. Particulars: purified recombinant protein. On the procedure:
Gel shift and MNase digestion assays were carried out as described (Falk et al. (2015) Science 348:699-703; Hasson et al. (2013) Nat. Struct. Mol. Biol., 20:687-695; Sekulic et al. (2010) Nature 467:347-351). Briefly, nucleosomes were reconstituted by incubating purified recombinant histones with ‘601’ DNA of either 195 or 147 bp over a series of dialysis. Recombinant protein VII-His was then combined with nucleosomes at various molar ratios, incubated at room temperature for 15 minutes, and analyzed by native gel electrophoresis. Complexes were also digested with MNase (Affymetrix) by addition of 1 unit per μg of DNA for 147 bp nucleosome experiments and 0.1 unit per μg of DNA for 195 bp nucleosome experiments, incubated at 22° C. for varying amounts of time followed by the addition of EGTA and guanidine thiocyanate to stop the reaction. The DNA fragments were then purified using a MinElute PCR purification kit (Qiagen) and analyzed on an Agilent 2100 Bioanalyzer as described (Falk et al. (2015) Science 348:699-703).
(In general: A gel shift assay detects complexes by their altered migration in electrophoresis.)

Experiment [1] has as its target T1, HMGB1 (Homo sapiens, UniProt P09429).
T1 sequence (P09429 1-215): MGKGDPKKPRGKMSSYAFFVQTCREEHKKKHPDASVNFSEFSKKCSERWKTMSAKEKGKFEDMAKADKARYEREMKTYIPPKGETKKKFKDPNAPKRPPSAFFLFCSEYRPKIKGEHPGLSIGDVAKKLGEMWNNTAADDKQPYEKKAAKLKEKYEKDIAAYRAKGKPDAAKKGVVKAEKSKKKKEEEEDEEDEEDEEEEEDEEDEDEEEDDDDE
Description: In vitro binding assay: recombinant protein VII-His with HMGB1-GST, cobalt resin pull-down. Particulars: equimolar HMGB1-GST and protein VII-His. The method, then:
HMGB1-GST (Abnova) or GST (Sigma) were combined with recombinant protein VII-His at equimolar ratios and incubated at 4° C. for 1 hour. Complexes were then mixed with a cobalt resin (ThermoScientific 89964) to bind protein VII-His and any associated protein and washed three times in the binding buffer (50 mM Tris pH 8, 300 mM NaCl, 0.1% IGEPAL). The beads were then boiled in sample buffer, separated on a 4-12% NuPage gel and visualized by coomassie staining.

For the next experiment, the target named is T2, HMGB2 (Homo sapiens, UniProt P26583).
T2 construct: endogenous in cells; host or cells: THP-1 (PMA-differentiated)
T2 sequence (P26583 1-209): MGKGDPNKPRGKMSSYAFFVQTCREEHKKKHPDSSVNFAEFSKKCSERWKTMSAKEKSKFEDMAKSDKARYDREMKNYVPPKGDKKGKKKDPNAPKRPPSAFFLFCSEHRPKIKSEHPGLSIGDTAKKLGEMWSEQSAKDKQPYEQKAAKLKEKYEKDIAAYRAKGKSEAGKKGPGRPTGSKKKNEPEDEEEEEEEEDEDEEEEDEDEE
Description: Release assay of HMGB2 in THP-1 cells. Type of experiment: cell-based. Particulars: PMA-treated THP-1 cells, LPS plus nigericin. The method, then:
(§1) THP-1 cells were seeded at a density of 2×10^5 cells per well in a 24-well plate, and stimulated into macrophage-like cells by addition of 10 ng/mL PMA for 48 hours. Cells were washed in PBS and transduced with recombinant adenovirus vectors expressing only GFP or protein VII-GFP such that >90% of cells were GFP positive. At 48 hours post transduction, cells were washed and 200 μL of serum free RPMI was added. To stimulate the inflammasome, LPS (Sigma-Aldrich L2880) with a final concentration of 0.5 μg/mL was added to wells and incubated for 2 hours, then nigericin (Sigma-Aldrich N7143) was added with a final concentration of 10 μM for 1 hour. Supernatants were collected and proteins precipitated overnight at 4° C. with a final concentration of 20% trichloroacetic acid (Sigma), washed with acetone, dried, and resuspended in 1×sample buffer with reducing agent (Invitrogen). For ELISA analysis, supernatants were harvested directly and HMGB1 content was detected by the manufacturer's instructions (Chondrex 6010). Cells were also harvested by the addition of 1×sample buffer with reducing agent (Invitrogen) and boiled. Supernatants and lysates were analyzed together by western blot.

For experiment [2], the target named is T1, HMGB1. Description: Release assay of HMGB1 in THP-1 cells. Type of experiment: cell-based. Set-up: endogenous in cells. Conditions: PMA-treated THP-1 cells, LPS plus nigericin. On the procedure:
as §1

A further experiment concerns LPS induced lung injury. Description: Murine model of LPS induced lung injury, BAL fluid analysis. Type of experiment: in vivo, mouse. Particulars: 24 hours after LPS exposure, versus mice expressing GFP. On the procedure: All mice were housed in SPF conditions. All studies in mice were carried out in accordance with the recommendations in the Guide for the Care and Use of Laboratory Animals of the National Institutes of Health. C57BL/6J male mice aged 8-10 weeks were used for experiments. Mice were sedated with ketamine and xylazine. Once sedated, mice underwent orotrachial intubation, as described (Das et al. (2013) J. Vis. Exp., (73):e50318), with a 20G angiocatheter from BD (Franklin Lakes, N.J.). Mice subsequently received 5e10 GC of recombinant adenovirus expressing VII-GFP or GFP purified as described above. Four days after infection, mice were exposed to aerosolized LPS, 3 mg/mL for 30 minutes as described (Jeyaseelan et al. (2004) Infect. Immun., 72:7247-7256). One day after LPS exposure, BAL, and lung tissue were harvested as detailed (Nick et al. (2000) J. Immunol., 164:2151-2159) and examined for HMGB1 content (ELISA, Chondrex 6010) and neutrophil count (hematoxylin and eosin stain kit EMD 65044/93). Immunostaining was carried out using standard methods. A minimum of four biological replicates were used for each condition studied. Mice were assigned a random number and color at the start of the experiment and were randomized. Technicians carrying out the experiments were blinded to the identity of the samples. Tissue samples were assigned a random study number such that the technician performing the analysis was blinded. Unblinding for the purpose of data analysis occurred only after all data had been collected.

The target in a further experiment is T3, mouse HMGB1 (Mus musculus, UniProt P63158).
T3 construct: endogenous in cells; host or cells: mouse embryonic fibroblasts (MEF)
T3 sequence (P63158 1-215): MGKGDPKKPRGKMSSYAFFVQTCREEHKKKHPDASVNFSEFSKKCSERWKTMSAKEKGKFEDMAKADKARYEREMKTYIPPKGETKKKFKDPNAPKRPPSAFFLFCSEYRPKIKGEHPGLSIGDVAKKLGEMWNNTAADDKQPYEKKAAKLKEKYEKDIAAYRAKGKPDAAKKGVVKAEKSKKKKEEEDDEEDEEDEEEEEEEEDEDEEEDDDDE
Description: Mouse embryonic fibroblast (MEF) cells transduced to express protein VII-GFP: immunofluorescence and salt fractionation. Type of experiment: cell-based. The method, then: Cells were grown on glass coverslips in 24-well plates and either infected or induced with doxycycline (0.2 μg/mL). Cells were harvested for immunofluorescence at the indicated time points, washed in phosphate-buffered saline (PBS), fixed in 4% paraformaldehyde for 15 minutes and post-fixed with 100% ice-cold methanol for 5 minutes. Coverslips were then blocked and stained as described (Lilley et al. (2011) PLoS Pathog., 7:e1002084) and mounted using ProLong Gold Antifade Reagent (Life Technologies). Immunofluorescence was visualized using a Zeiss LSM Confocal microscope and ZEN 2011 software. Images were processed using ImageJ and assembled with Adobe CS6. All scale bars show in the Figures are 10 μm unless otherwise stated.
Salt fractionation of nuclei was adapted from established protocols (Zaret, K. (2005) Micrococcal nuclease analysis of chromatin structure. Curr. Protoc. Mol., Biol. Chapter 21, Unit 21.1; Teves et al. (2012) Methods Mol. Biol., 833:421-432). […] The final pellet was resuspended in 400 μL ddH2O and all samples were analyzed together by western blot. An aliquot of each supernatant was set aside for DNA purification using a PCR purification kit (Qiagen) and analyzed by agarose gel electrophoresis. […]

For the molecule “PRM1: human protamine PRM1, a basic protein involved in sperm DNA compaction (ARYRCCRSQSRSRYYRQRQRSRRRRRRSCQTRRRAMRCCRPRYRPRCRRH; UniProt P04553 2-51, looked up) [reference compound]”, in the experiment with cellular chromatin, the “Effect on chromatin appearance” value is “did not affect chromatin appearance”.

B1: recombinant protein VII: Ad5 protein VII with C-terminal hexahistidine tag, purified from E. coli (protein)
chain: AKKRSDQHPVRVRGHYRAPWGAHKRGRTGRTTVDDAIDAVVEEARNYTPTPPPVSTVDAAIQTVVRGARRYAKMKRRRRRVARRHRRRPGTAAQRAAAALLNRARRTGRRAAMRAARRLAAGIVTVPPRSRRRAAAAAAAAISAMTQGRRGNVYWVRDSVSGLRVPVRTRPPRN
modifications: left off: small tags and cut ends
notes: Ad5 protein VII with C-terminal hexahistidine tag, purified from E. coli
B1: in the experiment with DNA, the DNA binding result is given as “binds to DNA”. Also, the “Direct binding of recombinant protein VII to HMGB1 in vitro” value with HMGB1 [1] is listed as “Direct binding”.

B2: protein VII-GFP (protein)
chain: AKKRSDQHPVRVRGHYRAPWGAHKRGRTGRTTVDDAIDAVVEEARNYTPTPPPVSTVDAAIQTVVRGARRYAKMKRRRRRVARRHRRRPGTAAQRAAAALLNRARRTGRRAAMRAARRLAAGIVTVPPRSRRRAAAAAAAAISAMTQGRRGNVYWVRDSVSGLRVPVRTRPPRN
modifications: left off: large carriers
Consider B2, for which the HMGB2 in supernatants entry in the experiment with HMGB2 was “sufficient to inhibit HMGB1 and HMGB2 release”. For the same molecule, the HMGB1 in supernatants result with HMGB1 [2] was “sufficient to inhibit HMGB1 and HMGB2 release”. For the same molecule, in the experiment on LPS induced lung injury, the “HMGB1 in BAL fluid” value was “decreases HMGB1” and the “Neutrophils in BAL fluid” value was “significantly fewer”. In addition, in the experiment with mouse HMGB1, the “Relocalization of mouse HMGB1” value is “sufficient to relocalize mouse HMGB1” and the “Retention of mouse HMGB1 in the high salt fraction” value is “sufficient to retain mouse HMGB1 in the high salt fraction”.
